Measured values: publication PMC6917504 (Biochemistry, 2017)

B1: Human concentrative nucleoside transporter 3 (hCNT3, SLC28A3), wild type, purified from High Five insect cells (natural protein, UniProt Q9HAS3 1-616, looked up)
chain: MELRSTAAPRAEGYSNVGFQNEENFLENENTSGNNSIRSRAVQSREHTNTKQDEEQVTVEQDSPRNREHMEDDDEEMQQKGCLERRYDTVCGFCRKHKTTLRHIIWGILLAGYLVMVISACVLNFHRALPLFVITVAAIFFVVWDHLMAKYEHRIDEMLSPGRRLLNSHWFWLKWVIWSSLVLAVIFWLAFDTAKLGQQQLVSFGGLIMYIVLLFLFSKYPTRVYWRPVLWGIGLQFLLGLLILRTDPGFIAFDWLGRQVQTFLEYTDAGASFVFGEKYKDHFFAFKVLPIVVFFSTVMSMLYYLGLMQWIIRKVGWIMLVTTGSSPIESVVASGNIFVGQTESPLLVRPYLPYITKSELHAIMTAGFSTIAGSVLGAYISFGVPSSHLLTASVMSAPASLAAAKLFWPETEKPKITLKNAMKMESGDSGNLLEAATQGASSSISLVANIAVNLIAFLALLSFMNSALSWFGNMFDYPQLSFELICSYIFMPFSFMMGVEWQDSFMVARLIGYKTFFNEFVAYEHLSKWIHLRKEGGPKFVNGVQQYISIRSEIIATYALCGFANIGSLGIVIGGLTSMAPSRKRDIASGAVRALIAGTVACFMTACIAGILSSTP
B2: hCNT3 Y266C/F463C double cysteine mutant (natural protein, human, UniProt Q9HAS3 1-691, looked up)
chain: MELRSTAAPRAEGYSNVGFQNEENFLENENTSGNNSIRSRAVQSREHTNTKQDEEQVTVEQDSPRNREHMEDDDEEMQQKGCLERRYDTVCGFCRKHKTTLRHIIWGILLAGYLVMVISACVLNFHRALPLFVITVAAIFFVVWDHLMAKYEHRIDEMLSPGRRLLNSHWFWLKWVIWSSLVLAVIFWLAFDTAKLGQQQLVSFGGLIMYIVLLFLFSKYPTRVYWRPVLWGIGLQFLLGLLILRTDPGFIAFDWLGRQVQTFLECTDAGASFVFGEKYKDHFFAFKVLPIVVFFSTVMSMLYYLGLMQWIIRKVGWIMLVTTGSSPIESVVASGNIFVGQTESPLLVRPYLPYITKSELHAIMTAGFSTIAGSVLGAYISFGVPSSHLLTASVMSAPASLAAAKLFWPETEKPKITLKNAMKMESGDSGNLLEAATQGASSSISLVANIAVNLIAFLALLSCMNSALSWFGNMFDYPQLSFELICSYIFMPFSFMMGVEWQDSFMVARLIGYKTFFNEFVAYEHLSKWIHLRKEGGPKFVNGVQQYISIRSEIIATYALCGFANIGSLGIVIGGLTSMAPSRKRDIASGAVRALIAGTVACFMTACIAGILSSTPVDINCHHVLENAFNSTFPGNTTKVIACCQSLLSSTVAKGPGEVIPGGNHSLYSLKGCCTLLNPSTFNCNGISNTF

Legend:
[1] = biological target: the molecule itself; assay: SEC
[2] = biological target: the molecule itself; assay: cross-linking

| Protein | stoichiometry N [1] | stoichiometry N [2] |
| --- | --- | --- |
| B1 | 3 | – |
| B2 | – | 3 |
